From patent US20050009137A1 (CEDARS SINAI MEDICAL CENTER, published 2005) come the findings set out here.

In one test the target is T1, GST protein alone (UniProt P08515 1-218 = GST).
T1 construct: Control in the GST pull-down; also called GST alone
As to the kind of experiment: GST pull-down from protein extracts of cells overexpressing IEBP, SDS-PAGE and blot with anti-hsp27 antibody.

The target in a further test is T2, recombinant human ERα (human, UniProt P03372 1-595).
T2 construct: also called estrogen receptor alpha
T2 sequence (looked up): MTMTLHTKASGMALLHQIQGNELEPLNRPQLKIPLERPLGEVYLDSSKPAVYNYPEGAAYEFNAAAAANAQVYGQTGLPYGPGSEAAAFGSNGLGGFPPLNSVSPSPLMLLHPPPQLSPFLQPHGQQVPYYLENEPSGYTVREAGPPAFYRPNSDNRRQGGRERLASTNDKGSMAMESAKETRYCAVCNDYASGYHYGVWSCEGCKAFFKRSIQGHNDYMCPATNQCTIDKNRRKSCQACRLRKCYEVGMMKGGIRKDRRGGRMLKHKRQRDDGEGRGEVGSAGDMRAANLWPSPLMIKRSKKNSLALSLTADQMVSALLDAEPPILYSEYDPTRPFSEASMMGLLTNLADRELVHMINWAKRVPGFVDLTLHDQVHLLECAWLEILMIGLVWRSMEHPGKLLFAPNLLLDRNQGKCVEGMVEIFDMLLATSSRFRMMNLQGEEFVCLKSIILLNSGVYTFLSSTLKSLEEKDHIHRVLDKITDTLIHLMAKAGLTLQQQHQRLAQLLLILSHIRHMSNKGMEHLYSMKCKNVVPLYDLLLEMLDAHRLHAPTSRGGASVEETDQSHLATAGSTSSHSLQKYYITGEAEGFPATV
In words: EMSA with consensus ERE probe, recombinant human ERα and extract of IEBP transfectant; supershift with anti-hsp27 antibody. (A gel shift assay detects complexes by their altered migration in electrophoresis.)

T1 sequence (P08515 whole entry): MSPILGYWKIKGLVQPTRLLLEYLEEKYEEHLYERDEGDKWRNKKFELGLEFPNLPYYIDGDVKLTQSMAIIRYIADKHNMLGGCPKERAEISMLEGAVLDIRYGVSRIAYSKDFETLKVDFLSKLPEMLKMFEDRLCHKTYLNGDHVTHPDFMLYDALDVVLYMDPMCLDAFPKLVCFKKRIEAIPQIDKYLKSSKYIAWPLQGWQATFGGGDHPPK
Method for GST protein alone: Postnuclear extracts were applied to the GST beads and incubated for 1 hour. The loaded GST-extract mixture was then washed repetitively (5×) with PBS buffer containing 5 mM DTT and 1 mM PMSF and resuspended in 2×SDS sample buffer and boiled for 5 minutes. Denatured proteins were resolved on 4-20% SDS-PAGE gel, transferred to a nitrocellulose membrane, probed with appropriate antibody (obtained from Santa Cruz) and visualized by ECL.
Protein extracts of cells overexpressing IEBP were incubated with a GST-receptor ligand-binding domain fusion protein representing the ER. Control assays were employed using a glucocorticoid receptor (GR)-fusion protein or GST protein alone.

B1: intracellular estradiol binding protein (IEBP) of New World primate B95-8 cells (other)
chain: MTERHVPFSLLQSPSWDPFRDWYPHSHLFDQAFGMPRLPEEWSQWFGTSSWPGYVRPLPPTTVEGPAVAAPAYSRALNQQLSSGVSETADRWRVSLDVNHFAPEELTVKTKDGVVEITGKHEERQDEHGFISRCFTRKYSLPPGVDPTQVSPSLSPEGTLTVDAPMSKPATQSNEITIPVTFESRAQLGGPEAAKSDRSAAK
notes: also called hsp27-like IEBP; hsp 27-related IEBP
With B1, the binding result in the test with GST protein alone was “no binding”; with recombinant human ERα, “binds”.
